This series in a line: label from the status in PepcDB records.
“MDNFVVTFARGFGTGGKAIASQLAKELGIHCYENRILTLASQLSGLDENVFQEVNEKLREEGGFTSFLRGLPRAKGYISRNEKFKSDDRLFEYQSQIINELADKESCVIVGKCADYVLKNRPNVVSIYIEAPRAFCVERTITNMGVTPEVANATIERTDKFRADYYKYYTHGNYWTNPVNYDLTLNSERVGVENCVKTIEQYLIIKGFIKADMIKPAGELI”: the protein production entry is on record as “failed”. With “SLSSTQSVNSVLAPGNLRKVHHIALNVQDMQASRYFYGTILGLHELTDDEVPATLTELVASGKVANFITPDGTILDLFGEPELSPPDPNPEKTFTRAYHLAFDIDPQLFDRAVTVIGENKIAIAHGPVTRPTGRGVYFYDPDGFMIEIRCDPEAEG” the entry was “not failed”; with “MMFGRFSDRAQKMIYYAQEEAQNFKHGYVGTEHILLGILRDENGKAQSLLANMGVTIEKVRRLIEEYEGFGDSDLYKEEPPLTPRTKRLLEISLLEARNLNHNYINPEHVLLALIRESEGVAFTILGNLGVDFERLRKEILDSLS”, “failed”; with “MTDLELQQLTQRIAQESFGKSFPYKVVFNQRLKTTGGRYHLNDHHIDINPLMLEEFDEATLIGVIKHELVHYFVHMLNEKPDHRNPHFQQLLRAVGGLRYAPTTSKRRRTPPKLLYQCQGCGLQYPRQRRINTRKYVCSKCRGRLKLL”, “failed”. In the case of “MTTPRRALIVIDVQNEYVTGDLPIEYPDVQSSLANIARAMDAARAAGVPVVIVQNFAPAGSPLFARGSNGAELHPVVSERARDHYVEKSLPSAFTGTDLAGWLAARQIDTLTVTGYMTHNCDASTINHAVHSGLAVEFLHDATGSVPYENSAGFASAEEIHRVFSVVLQSRFAAVASTDEWIAAVQGGTPLARGNIYASNQKARARRATA” it was “not failed”; in that of “MKERILQEIKTRVNRKSWELWFSSFDVKSIEGNKVVFSVGNLFIKEWLEKKYYSVLSKAVKVVLGNDATFEITYEAFEPHSSYSEPLVKKRAVLLTPLNPDYTFENFVVGPGNSFAYHAALEVAKHPGRYNPLFIYGGVGLGKTHLLQSIGNYVVQNEPDLRVMYITSEKFLNDLVDSMKEGKLNEFREKYRKKVDILLIDDVQFLIGKTGVQTELFHTFNELHDSGKQIVICSDREPQKLSEFQDRLVSRFQMGLVAKLEPPDEETRKSIARKMLEIEHGELPEEVLNFVAENVDDNLRRLRGAIIKLLVYKETTGKEVDLKEAILLLKDFIKPNRVKAMDPIDELIEIVAKVTGVPREEILSNSRNVKALTARRIGMYVAKNYLKSSLRTIAEKFNRSHPVVVDSVKKVKDSLLKGNKQLKALIDEVIGEISRRALSGLEHHHHHH”, “not failed”. On to “MKVEKGDVIRLHYTGKVKETGEIFDTTYEDVAKEARIYNPNGIYGPVPIAVGAGHVLPGLDKRLIGLEVKKKYVIEVPPEEGFGLRDPGKIKIIPLGKFRKSGIIPYPGLEIEVETENGRKMRGRVLTVSGGRVRVDFNHPLAGKTLVYEVEVVEKIEDPIEKIKALIELRLPMIDKDKVIIEISEKDVKLNFKDVDIDPKTLILGEILLESDLKFIGYEKVEFEPTIEELLKPKSAEEQESPNEEQQEESESKAEES”, for which the protein production entry was “failed”.

Turning to “MQKLTRINDFNEVLNSRKSVKVFDENYKIPREEMDEIITKATKAPSSVNMQPWRIAVVQSDEMKEKVKESFGFNSRQLTTSSAMLIIFGDLQNYEKAEQIYGDAVEQQLMTEDIKAQLLDWILPYYKNLSREGMKDIVNIDSSLMAMQLMLTAKAHGYDTNPIGGFDKENIADIIGYDSDRYVPVLAIAIGKKAQDAHDSVRLPIDDVREFL”, the protein production entry is listed as “not failed”.

“MSDLRTVPKHTALLIGLMIFGLFFGAGNLIFPVELGRLAGHSAPVTAAGFLVTAVGIPIVAIISSAVSGCSSVHGMTSRVSSQYATIFTCLLYLTIGPAFAIPRTATVSYEVGVAPFIQGHGPALPIFTIVFFAMTLVAALKPGKLMDWVGRYLTPLFLALLAILIVATLIHPMPTVANRPPQPPYDHQPFMHGFLDGYNTMDALASLAFAIVIIEAINQRGSTGRRDVTHITIRAGLVATIPLTLVYVSLAWLGRTSTLVVPNAANGGVVLAGVSRHYYGTAGQVLIAAIVLVACLKTAIGLVVACAEIFRRMFPAGPSVRSWVVIFSVASAIIANAGLTTIIAWSTPVLMFLYPLAITAIILGLLDPWLGASRLPHRIMTGCVVLAALPDLVRALPIQGSGTRAITHVADMVLPWASDGLGWGLPAIIGLAAGWGASLILGRPRRWGTSS”: the protein production entry is on record as “failed”. In the case of “MGNYLLRKLSCLGENQKKPKKGNPDEERKRQEMTTFERKLQDQDKKSQEVSSTSNQENENGSGSEEVCYTVINHIPHQRSSLSSNDDGYENIDSLTRKVRQFRERSETEYALLRTSVSRPCSCTHEHDYEVVFPH” it was “not failed”. With “MKALEGFTILLALVGVIPRIEGCIRVPPGVTAAKSPVDDNYVLSVNGNTQSYVPGQRYNVSLSAFSGLSFISFMLALDLESGDGDGDANALGTWEIADLAETRFSPRCPNLVENTNTNVKTRVDVFWVAPSSPGQGCILLRATVMQHRDVWFMDDGFLTKRMCEEEVDDIDTQPSIVDPCCACDEAKYELTFEGKWSRHTHPKDFPANSWRTRFSDIIGASHTLDYRFWQYGELASEGLREVAEHGSTRTLESELKDQSEHIRTIIKARGIAYPNVTGKTFAVFRVDSNHHLISLVSMVDPSPDWIVGVSGLELCLPNCSWVENKVHNLYPWDAGTDSGPSYMSADQPQVPPDVVRRIKSNFPNDPRSPFYDPTGAQMKPLATLHINRRRLYEKNCESSDSEQVPPECATNSWSRWDECTTKCGPGKQYRIREFKNPALASRHRCNNALREEKNCVGHKCAGFNEETAEGGEPEVAPSPGSSDDPQCGLSDWSEWSSCTVTCGTGEMTRSRHYLNKKAKKKCQKASRARLHETKICEAMECGGDIENEGGAGEPEEEQAGGDGGGSAEKRSIFRNFESYSQHREDYIPPVCGVTPWSDFSPCMGPCGGHGKRQRIRKVWNNNQVYGVTDPNDDGQDPCRHIKLHEEVNCTNPSCDTIVPGFCYDELTDSPCRDNDVANFWYYDHVSDQCAIYWSDRCDTNRNKFKSKEECEETCRLPRHKQELQHDGIPAIDCLVSDWVSHSCNASCGDGFQLRTRRVLRTPKYGGKPCPKHLVRLDRCYQRCDDMYSISGRGFGERRHVVRAPQPEPQDECRYSEWSAWTPCTATCGDNAVRQRTRTLMNTDLSYKCKDRVRMEKCVMMPCQLTSNDDPERW” the entry was “failed”; with “MAILSYISATSTTPPIPQDQSPNSRLPTKIILPNKKPEKWSTGVAPGEYGGPPTTTKLRKYWGGEKEDPITSTDLIWNRDFMDQMKKLFDDPNDSSLDPSPSKEKSSGFLSFSRVMSLDSMDVDLSKELASSSKSVVKNRLDTSKSEAKKQMSKAIVSPKWKLAPTRREQEKWDRATKAATGGSDVMFRELRRPRGDPEVQAAKDREQYFKLKNKIQVLTLGIGGVGLVSAYISYTPEIALSFGAGLLGSLAYMRMLGNSVDAMADGARGVAKGAANQPRLLVPVVLVMIFNRWNAILVPEYGFMHLELIPMLVGFFTYKIATFFQAIEEAISITTQKPESISPDTQASD”, “not failed”; with “MAKLTESMTNVLEGDSMDQDVESPVAIHQPKLPKQARDDLPRHISRDRTKRKIQRYVRKDGKCNVHHGNVRETYRYLTDIFTTLVDLKWRFNLLIFVMVYTVTWLFFGMIWWLIAYIRGDMDHIEDPSWTPCVTNLNGFVSAFLFSIETETTIGYGYRVITDKCPEGIILLLIQSVLGSIVNAFMVGCMFVKISQPKKRAETLVFSTHAVISMRDGKLCLMFRVGDLRNSHIVEASIRAKLIKSKQTSEGEFIPLNQTDINVGYYTGDDRLFLVSPLIISHEINQQSPFWEISKAQLPKEELEIVVILEGMVEATGMTCQARSSYITSEILWGYRFTPVLTLEDGFYEVDYNSFHETYETSTPSLSAKELAELASRAELPLSWSVSSKLNQHAELETEEEEKNLEEQTERNGDVANLENESKV”, “failed”. Take “MASHQEQSYKAGETRGKAQEKTGEAMGTMGDKTQAAKDKTQETAQSAQQKAHETAQSAKDKTSQAAQTTQERAQESKDKTGSYMSETGEAIKNKAHDAAEYTKETAEAGKEKTSGILGQTGEQVKQMAMGATDAVKHTLGLRTDEGNKEHVSSAPSTTTTTTTRETQRK”: the protein production result is listed as “failed”.

(Values after a protein production outcome set (Wang et al. 2014).)
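Further: failed if final PepcDB status was selected cloned or expressed and not failed if soluble or beyond.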
